Measured values reported in the supplement of paper PMC10126150.
± gives the standard deviation of the averaged measurements.

test system: ATP; assay: switch fluorescence ratio, 500 uM ATP over buffer (Cy3 cluster intensity, sum of 5 cycles each) (fold (ratio)); higher = stronger signal-on switching upon ATP binding; sequences stand for … in TCGTCGGCAGCGTCAGATGTGTATAAGAGACAGTTTTTTTTTTTTTTTTTTTTTTTTT…TC; details: aptamer strand: ATP DNA aptamer (quencher-CACCTGGGGGAGTATTGCGGAGGAAGG + anchor), 100 nM annealed; ATP concentration: 500 uM
Outline: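 Five buffer/ATP imaging cycles were run on Cy3-labelled switching-strand clusters on a modified Illumina MiSeq flow-cell, with NaOH stripping and re-annealing between cycles. In each cycle, clusters annealed to 100 nM quencher-labelled ATP aptamer were imaged in selection buffer, then after 15 min with 500 uM ATP at 22 °C. Per cluster, the fluorescence ratio is summed target-cycle over summed buffer-cycle Cy3 intensity, averaged per switch-domain sequence. Only clusters within 100-1000 RFU were kept.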
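Also: ATP exposure 15 min at 22 °C before imaging.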

| Sequence | switch fluorescence ratio |
| --- | --- |
| CTGAATGCAG | 1.069 ± 0.0077 |
| AAGCGCTGTG | 1.03 ± 0.047 |
| AAAGCTGGGG | 0.981 ± 0.048 |
| GTTAAAATTA | 1.01 ± 0.015 |
| TGGTGCGGCG | 1.09 ± 0.031 |
| TTACGGGGAC | 1.08 ± 0.089 |
| AGGGCCGGTC | 1.06 ± 0.04 |
| AGGTGGGGTG | 1.03 ± 0.023 |
| GATCGTATAT | 0.9987 ± 0.0084 |
| TTTGTAAATA | 1.008 ± 0.0069 |
| ATTCCCCGGG | 1.66 ± 0.68 |
| TGGGTAGATA | 0.985 ± 0.045 |
| AATGGCCGCG | 1.08 ± 0.11 |
| ACAGCAGGGC | 1.07 ± 0.07 |
| CGTATATAGT | 1.01 ± 0.014 |
| GCTCACACGG | 1.62 ± 0.023 |
| ATTATTTTAT | 1.05 ± 0.069 |
| GAAATGGCGT | 0.986 ± 0.038 |
| TAGGTGGGGG | 1.01 ± 0.039 |
| GAGAAGAAGC | 1 ± 0.025 |
| TGACTGCTGG | 1.01 ± 0.027 |
| TAGTTACGAT | 1.04 ± 0.012 |
| CGGGTATAGG | 1.013 ± 0.01 |
| TTTGGCTTCT | 1.04 ± 0.073 |
| GAGTGAGGGT | 0.987 ± 0.031 |
| TGGTGTATGG | 1.01 ± 0.035 |

| Sequence | switch fluorescence ratio |
| --- | --- |
| TAGGGGGGCA | 0.991 ± 0.041 |
| TTTGTTGTTG | 0.984 ± 0.03 |
| TACAATTGAA | 1 ± 0.025 |
| GGTTAACTTA | 0.979 ± 0.042 |
| TTTTTAGAGG | 0.97 ± 0.041 |
| CGGGGATATG | 0.9607 ± 0.0029 |
| GATGACAGGT | 1.03 ± 0.041 |
| TAAAAAGGAA | 0.964 ± 0.064 |
| AGATGGGTAT | 0.986 ± 0.011 |
| TTCGGGACCC | 1.08 ± 0.1 |
| CGCTGCGGTT | 1.01 ± 0.05 |
| CGGGCTTCTA | 1.04 ± 0.053 |
| GATGGTGTAA | 0.967 ± 0.028 |
| TAGTAGAGTT | 1 ± 0.013 |
| AACGGTTGGC | 0.975 ± 0.017 |
| CGACTACTTT | 1.05 ± 0.031 |
| CCGTAAAACT | 2.46 ± 1.2 |
| GCTCTAATGC | 1.17 ± 0.096 |
| CTTGTAACCT | 1.8 ± 0.061 |
| TATGTGAGTA | 1.01 ± 0.013 |
| TTGTGATAGT | 1.0025 ± 0.00064 |
| CTGGTTTTCA | 0.988 ± 0.024 |
| TTACGGTCCA | 1.05 ± 0.017 |
| CGTGCCAGCT | 0.9518 ± 0.00082 |
| ACTTCAGCGG | 1.07 ± 0.015 |
| AAGGTTTCGG | 0.985 ± 0.038 |

| Sequence | switch fluorescence ratio |
| --- | --- |
| AGTGATTGCA | 1.007 ± 0.004 |
| CGCGAGGGGC | 1.07 ± 0.012 |
| GGGTATGGGC | 0.955 ± 0.014 |
| CTATACTTGA | 0.999 ± 0.031 |
| TAGGATTATA | 0.964 ± 0.021 |
| CCATTGTAGT | 0.99 ± 0.013 |
| CGGTACGTTT | 1.007 ± 0.0015 |
| ATAGGGGGGG | 1.03 ± 0.025 |
| TTCATCCGGT | 1.52 ± 0.091 |
| ATGGGCAGTG | 1.02 ± 0.015 |
| TGCGGGAGGG | 1.26 ± 0.35 |
| TCTTTGGAAC | 0.997 ± 0.034 |
| CGAAAATAAT | 0.9817 ± 0.0022 |
| TATTTTACGC | 1.01 ± 0.024 |
| TGTTTAGGGG | 1.01 ± 0.025 |
| GGGCAGTAGG | 1 ± 0.025 |
| AGAGCGTTCG | 0.998 ± 0.042 |
| AGGGCGGTCT | 1.07 ± 0.18 |
| TTTCTGGCTG | 1.025 ± 0.0043 |
| CGTTGCCGCT | 0.934 ± 0.054 |
| CGTTTTTCTT | 0.958 ± 0.05 |
| CGGGAGCTTT | 1.07 ± 0.012 |
| CAAATGGGCT | 0.975 ± 0.044 |
| CGGAGTTATG | 1.09 ± 0.04 |
| CACACGTTTT | 1.02 ± 0.013 |
| TAAAGGTCGG | 0.967 ± 0.028 |

| Sequence | switch fluorescence ratio |
| --- | --- |
| AATTGGTCGT | 0.965 ± 0.043 |
| AATGGCGTAT | 1.02 ± 0.029 |
| CAGGGGGCCA | 0.984 ± 0.033 |
| AATGAAGAAG | 1.17 ± 0.22 |
| TTTTGGGGTG | 1.05 ± 0.12 |
| TAGCGGGGAC | 1.07 ± 0.037 |
| CGATACGTGG | 1.02 ± 0.042 |
| GCATGGGTGG | 1 ± 0.023 |
| GGGGATATCG | 1.03 ± 0.024 |
| TTAAGTTTGG | 1.01 ± 0.027 |
| CTATGTGGAG | 0.975 ± 0.033 |
| AAATTCGCTG | 1.01 ± 0.095 |
| TCGTCTCTTT | 0.986 ± 0.018 |
| AGGTTCTGGG | 1.01 ± 0.03 |
| TACCGTGGGT | 0.99 ± 0.021 |
| GCAAGGAGGG | 1.05 ± 0.14 |
| ACGAGCTGCT | 1.032 ± 0.0038 |
| AGCAGGGCGG | 0.983 ± 0.011 |
| GGGGGAAGTC | 1.01 ± 0.034 |
| TTACAATTTC | 1.03 ± 0.056 |
| ACGCTAGGGC | 1.16 ± 0.039 |
| TGGTAATAGT | 1.02 ± 0.038 |
| CCGGAAAGAG | 1.06 ± 0.02 |
| GAAGGCGGTT | 1.029 ± 0.0037 |
| GTTAGCGCAT | 1.04 ± 0.025 |
| GTGGGAAGTT | 0.9926 ± 0.0071 |

| Sequence | switch fluorescence ratio |
| --- | --- |
| GAATGGGACA | 1.13 ± 0.26 |
| TTGTGGCGCC | 0.958 ± 0.021 |
| TGTTTGTTTG | 1 ± 0.036 |
| GAGTCATGCG | 0.911 ± 0.093 |
| AGGAGGGAAC | 0.9916 ± 0.0016 |
| GGGGGTATGT | 0.997 ± 0.02 |
| TTGACTTTAA | 1 ± 0.083 |
| GGTTTAGCTC | 0.999 ± 0.038 |
| CAGGTGGTCA | 1 ± 0.021 |
| GAAACGAAGG | 0.9704 ± 0.0028 |
| GTTGCATCGA | 1.02 ± 0.046 |
| GTTGGGGTTC | 0.982 ± 0.027 |
| GGTTGGTGCA | 1.02 ± 0.013 |
| CATTGCAAAC | 5.13 ± 0.53 |
| CGTGCTGTT | 1.01 ± 0.027 |
| CGGGGAACTT | 1.01 ± 0.019 |
| CACGTACGGG | 1.59 ± 0.089 |
| GCATGAAGCA | 1 ± 0.017 |
| CGGCTAGACG | 0.9994 ± 0.0057 |
| TGTGAAAGTG | 0.982 ± 0.041 |
| TTAACGGGCT | 1.01 ± 0.048 |
| TAAAGTGGT | 0.986 ± 0.043 |
| GGGGTAATGG | 0.993 ± 0.034 |
| GTGGGCCAGG | 1.06 ± 0.094 |
| GGGGGGAAGT | 1.01 ± 0.022 |
| TATTGGGAGG | 0.968 ± 0.023 |

| Sequence | switch fluorescence ratio |
| --- | --- |
| AGGGGTGTCC | 1.01 ± 0.029 |
| TTCAAAATAG | 1.12 ± 0.15 |
| CCAATCGGGG | 1.03 ± 0.087 |
| GACTTTACGG | 1.06 ± 0.048 |
| AGGGGCTATG | 1.01 ± 0.032 |
| GCAAACTCTG | 1.12 ± 0.15 |
| GAGATAAAAG | 1.01 ± 0.03 |
| TGTTGGTTGC | 0.988 ± 0.033 |
| TATTGGCTTT | 0.989 ± 0.014 |
| CGTAATGAAG | 1.004 ± 0.0064 |
| TAGATCCTTT | 1.03 ± 0.027 |
| AATCATTAGC | 0.985 ± 0.049 |
| TGGTCCTATG | 1.01 ± 0.054 |
| TCGGGGTCTG | 0.9872 ± 0.0066 |
| TCGAGCAGCT | 1.1 ± 0.032 |
| AAGGAATTGG | 0.992 ± 0.0042 |
| ATTTTGCTAA | 0.996 ± 0.016 |
| TGCATAACGT | 1.02 ± 0.024 |
| TATCGGTGTT | 0.991 ± 0.027 |
| TGGGGGCTAC | 1 ± 0.01 |
| GTTGATGGGG | 0.984 ± 0.047 |
| GATCACTATA | 1.03 ± 0.054 |
| ATTGGGTTTT | 0.999 ± 0.022 |
